Numbered stars: 1 amine (or outer) side, 2 acyl side, 3 side chain; on linkers, the order of the positions; unused ones are H or OH. Bridge positions count the residues as written; N and C are the ends. Square brackets hold non-standard residues; d marks the D form. Side chains are listed from the residue outwards. Ends that are not written are not given here. * marks the point of attachment. C20 diacid = O=C(O)CCCCCCCCCCCCCCCCCCC(=O)*; γGlu = O=C(O)[C@H](CCC(=O)[*:2])N[*:1]
T1: human amylin receptor (amylin 3(a) receptor: human calcitonin receptor co-expressed with RAMP-3) (human, UniProt P30988 25-474; O60896 24-148, limits assumed)
T1 construct: whole, on cells; also called hAmylin-R; hAmylinR
T1 sequence (looked up) 1: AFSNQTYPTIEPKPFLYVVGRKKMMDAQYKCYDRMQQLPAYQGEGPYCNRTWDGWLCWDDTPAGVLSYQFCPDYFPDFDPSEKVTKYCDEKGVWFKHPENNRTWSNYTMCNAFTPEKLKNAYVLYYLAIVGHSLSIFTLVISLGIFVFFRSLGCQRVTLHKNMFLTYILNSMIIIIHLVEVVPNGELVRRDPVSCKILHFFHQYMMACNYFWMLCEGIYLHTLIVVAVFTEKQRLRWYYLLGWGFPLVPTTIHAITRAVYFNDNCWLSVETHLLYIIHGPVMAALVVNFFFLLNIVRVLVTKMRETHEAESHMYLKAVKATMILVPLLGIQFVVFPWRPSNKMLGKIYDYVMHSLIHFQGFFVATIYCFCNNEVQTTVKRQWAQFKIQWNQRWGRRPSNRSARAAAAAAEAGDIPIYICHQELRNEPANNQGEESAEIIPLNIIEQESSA
T1 sequence (looked up) 2: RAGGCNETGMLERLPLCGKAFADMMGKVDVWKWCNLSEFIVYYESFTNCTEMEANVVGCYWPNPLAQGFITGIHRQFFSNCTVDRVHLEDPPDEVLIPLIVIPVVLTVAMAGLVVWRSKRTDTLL

T2: rat amylin receptor (rat calcitonin receptor + rat RAMP 3) (rat, UniProt P32214 25-516; Q9JJ73 23-147)
T2 construct: whole, on cells; Used as membranes prepared from transiently transfected BHK tk'ts 13 cells (Assay VI); also called rAmylin-R; rat amylin 3(a) receptor
T2 sequence (looked up) 1: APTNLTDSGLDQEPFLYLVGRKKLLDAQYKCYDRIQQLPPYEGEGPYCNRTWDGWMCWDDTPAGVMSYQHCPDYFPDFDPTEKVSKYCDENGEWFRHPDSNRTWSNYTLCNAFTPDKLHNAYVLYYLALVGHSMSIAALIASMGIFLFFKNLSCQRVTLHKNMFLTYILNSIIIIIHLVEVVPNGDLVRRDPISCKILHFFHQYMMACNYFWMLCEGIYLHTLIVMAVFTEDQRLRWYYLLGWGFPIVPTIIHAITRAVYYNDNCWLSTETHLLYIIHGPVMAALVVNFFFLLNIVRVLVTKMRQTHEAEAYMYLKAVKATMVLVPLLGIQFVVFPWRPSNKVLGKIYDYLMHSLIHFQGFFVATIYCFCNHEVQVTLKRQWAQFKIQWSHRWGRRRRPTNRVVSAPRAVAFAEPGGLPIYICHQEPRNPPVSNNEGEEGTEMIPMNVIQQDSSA
T2 sequence (looked up) 2: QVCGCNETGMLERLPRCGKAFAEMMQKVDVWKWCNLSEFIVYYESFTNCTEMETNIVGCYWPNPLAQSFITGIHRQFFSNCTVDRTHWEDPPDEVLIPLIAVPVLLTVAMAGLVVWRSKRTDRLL

T3: rat calcitonin receptor (rat, UniProt P32214 25-516)
T3 construct: whole, on cells; Used as membranes prepared from transiently transfected BHK tk'ts 13 cells (Assay VIII); also called rCTR; rat calcitonin (a) receptor
T3 sequence (looked up): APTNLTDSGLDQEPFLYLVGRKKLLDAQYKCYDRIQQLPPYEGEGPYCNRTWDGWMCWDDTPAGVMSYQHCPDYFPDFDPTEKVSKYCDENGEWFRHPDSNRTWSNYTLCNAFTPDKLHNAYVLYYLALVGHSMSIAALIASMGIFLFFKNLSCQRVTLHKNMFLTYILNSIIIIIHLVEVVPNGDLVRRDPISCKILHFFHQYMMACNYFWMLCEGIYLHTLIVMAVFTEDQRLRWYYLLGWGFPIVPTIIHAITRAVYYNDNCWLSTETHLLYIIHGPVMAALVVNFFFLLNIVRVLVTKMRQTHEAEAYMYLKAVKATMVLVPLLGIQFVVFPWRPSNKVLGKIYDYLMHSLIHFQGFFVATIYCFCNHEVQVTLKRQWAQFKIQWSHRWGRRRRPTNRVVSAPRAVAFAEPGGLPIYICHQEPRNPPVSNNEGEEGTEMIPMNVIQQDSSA


Legend:
[1] = target: T1, human amylin receptor (amylin 3(a) …); assay: SPA competition binding, membranes of Amylin 3(a)/CRE-luc BHK cells, displacement of 125I-rat amylin (Assay V)
Procedure, shortened: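 Membranes from BHK Amylin 3(a)/CRE-luc cells (35 ng/μL final) were mixed with SPA beads and test compounds in 50 mM Hepes pH 7.4 with 1 mM CaCl2, 5 mM MgCl₂, 0.1% OA and 0.02% Tween20. Incubation ran 120 min at 25° C with shaking; IC₅₀ came from one-site competition fitting.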

[2] = target: T2, rat amylin receptor (rat calcitonin …); assay: SPA competition binding, displacement of 125I-rat amylin from membranes of BHK tk'ts 13 cells with rat calcitonin receptor + rat RAMP 3 (Assay VI)
rat calcitonin receptor = target: T3, rat calcitonin receptor; assay: SPA competition binding, displacement of 125I-calcitonin from membranes of BHK tk'ts 13 cells with rat calcitonin receptor (Assay VIII)

IC50 [1] [nM]	IC50 [2] [nM]	IC50 (rat calcitonin receptor) [nM]	Binder
0.533	–	–	K([γGlu-γGlu-C20 diacid])CNTATCATQRLAEFLRHSSPNFGAIPSSTNVGPETP-NH2 (disulfide 2-7; N-terminus assumed; SMILES CC[C@H](C)[C@H](NC(=O)[C@H](C)NC(=O)CNC(=O)[C@H](Cc1ccccc1)NC(=O)[C@H](CC(N)=O)NC(=O)[C@@H]1CCCN1C(=O)[C@H](CO)NC(=O)[C@H](CO)NC(=O)[C@H](Cc1c[nH]cn1)NC(=O)[C@H](CCCNC(=N)N)NC(=O)[C@H](CC(C)C)NC(=O)[C@H](Cc1ccccc1)NC(=O)[C@H](CCC(=O)O)NC(=O)[C@H](C)NC(=O)[C@H](CC(C)C)NC(=O)[C@H](CCCNC(=N)N)NC(=O)[C@H](CCC(N)=O)NC(=O)[C@@H](NC(=O)[C@H](C)NC(=O)[C@@H]1CSSC[C@H](NC(=O)[C@@H](N)CCCCNC(=O)CC[C@H](NC(=O)CC[C@H](NC(=O)CCCCCCCCCCCCCCCCCCC(=O)O)C(=O)O)C(=O)O)C(=O)N[C@@H](CC(N)=O)C(=O)N[C@@H]([C@@H](C)O)C(=O)N[C@@H](C)C(=O)N[C@@H]([C@@H](C)O)C(=O)N1)[C@@H](C)O)C(=O)N1CCC[C@H]1C(=O)N[C@@H](CO)C(=O)N[C@@H](CO)C(=O)N[C@H](C(=O)N[C@@H](CC(N)=O)C(=O)N[C@H](C(=O)NCC(=O)N1CCC[C@H]1C(=O)N[C@@H](CCC(=O)O)C(=O)N[C@H](C(=O)N1CCC[C@H]1C(N)=O)[C@@H](C)O)C(C)C)[C@@H](C)O)
–	1.69	536	K([γGlu-γGlu-C20 diacid])CNTATCATQRLA[dD]FLRHSSPNFGAIPSSTNVGSRTY-NH2 (disulfide 2-7 (inferred), Residue 14 is the D-isomer of Asp)
